The subject of one experiment is L. infantum. Kind of experiment: Protection against L. infantum in the murine model of visceral leishmaniasis. Particulars: 6 weeks after i.v. infection with 5×10^5 L. infantum promastigotes; versus Saponin and PBS groups. Format: in vivo, mice. As for the experimental part: (§1) To assess the immunogenicity of the synthetic multi-epitope chimera characterised by SEQ ID NO: 5, inoculations were performed subcutaneously in three groups of mice (n=8/group). The animals of one group, referred to as Seq5, were inoculated with 50 µg of the synthetic chimera characterised by SEQ ID NO: 5 and 25 µg of saponin, as an adjuvant; the animals of another group, saponin control group, were inoculated with 25 µg of saponin; and the PBS control group was inoculated with PBS (buffer in which both the synthetic multi-epitope chimera characterised by SEQ ID NO: 5 and the adjuvant were transported). The inoculation was carried out on the left rear plantar pad on days 60, 45 and 30, with respect to day zero of infection, with a total volume of 50 µl.
30 days after the last immunisation carried out as described in example 3, an infection was intravenously performed with 5×10^5 infective L. infantum promastigotes in the 3 groups of animals (which we have named Seq5, Saponin and PBS). 6 weeks after infection, the animals were euthanised and the parasite load in the VL target organs was assessed. The parasite count was carried out by decimal dilutions of spleen and liver macerates, separately, and their subsequent observation under a microscope. […]

Experiment [1] concerns BMDCs infected with L. infantum. The experiment is described as follows: Leishmanicidal activity in L. infantum infected BMDCs co-cultured with splenocytes of immunised animals. Format: cell-based, mice. Particulars: 24 and 72 hours of postinfection incubation; versus Saponin and PBS control groups. The procedure: as §1
The leishmanicidal activity of the chimera characterised by SEQ ID NO: 5 (indicated in the figure as Seq5) was assessed in BMDC. Virgin BMDCs infected with L. infantum were co-cultured with splenocytes from animals previously immunised with the chimera characterised by SEQ ID NO: 5 as indicated in example 3, and with splenocytes from animals previously inoculated with the two controls used according to example 5. The parameters of infected cells and number of intracellular amastigotes were determined by optical microscopy. The data are presented as the mean ± SD. […]

A short description of experiment [2]: Immunogenicity in immunised mice: cytokine ELISA in BMDC/splenocyte co-cultures and humoral response. Format: in vivo. As for the experimental part: as §1
The displacement of the immune response in the group immunised with the chimera characterised by SEQ ID NO: 5 correlates with increased leishmanicidal activity in target cells infected with Leishmania.
Use was made of virgin bone marrow-derived dendritic cells (BMDC) stimulated with soluble Leishmania antigen (SLA; produced with the supernatants obtained after having lysed cultures of Leishmania promastigotes obtained after sonication and subsequent centrifugation), grey bars; or stimulated with the chimera characterised by SEQ ID NO: 5, white bars; unstimulated BMDC was used as negative control, indicated as N-E with black bars. The BMDCs were co-cultured with spleen cells, splenocytes, of the animals previously immunised as indicated in example 3. Cytokine production (pg/ml) was quantified using the ELISA technique. The data are presented as the mean ± standard deviation (SD). The hash marks indicate statistically significant differences (#, P < 0.05; ##, P <0.001) between the immunised groups and the two control groups (Saponin and PBS). The asterisk indicates statistically significant differences (*, P < 0.05; **, P < 0.001).
(In general: In an ELISA, binding on a coated surface is turned into a signal by an enzyme label.)

Where [3] appears, read: splenocytes of immunised mice co-cultured with BMDC stimulated with the chimera or SLA, ELISA, versus Saponin and PBS controls.

B1: … RFQSSAIMALQEITRGCVRRMARRGGVK (peptide)
chain: TAVLEYLTAELLELSRSLKAINAQMSMSHRTMKIVNSYVEGLRFQSSAIMALQEITRGCVRRMARRGGVK
modifications: Multi-epitopic chimera consisting of SEQ ID NO: 1, 2, 3 and 4 from Leishmania infantum
Take B1: in the experiment on L. infantum, the “parasite load in the liver (H)” value is given as “lower parasite load” and the “parasite load in the spleen (B)” value was “lower parasite load”. Also, in experiment [1], the “number of intracellular amastigotes detected per cell (No./BMDC)” value is “lower number” and the “percentage of infected target cells (% BMDC)” value is reported as “notable reduction”. Besides, the “specific humoral response against the synthetic multi-epitope chimera (isotype)” value in experiment [2] (mice immunised s.c. with 50 µg chimera and 25 µg saponin) is on record as “redirection of the specific humoral response against the synthetic multi-epitope chimera to the IgG2a isotype”. Also, in experiment [2] (mice immunised s.c. with 50 µg chimera and 25 µg saponin, versus Saponin and PBS controls), the immune response profile result was “protective Th1 cell response profile”. Further, in experiment [2] (setting [3]), the “production of IFN-γ” value is “greater amount” and the “production of IL-12” value is given as “greater amount”.

These data come from patent EP4163303A1, “SYNTHETIC MULTI-EPITOPE CHIMERA AS A VACCINE AND TREATMENT FOR LEI[…] MAMMALS” (Universidad Complutense De Madrid, priority 2020, dated 2021).
